Reference: patent US8487082B2, “Synthetic scFv analogue to the 6313/G2 (anti angiotensin II type 1 receptor) monoclonal antibody variable regions” (Queen Mary & Westfield College, priority 2008, dated 2013)
Entries after “also recorded” stand apart in the source; their conditions may differ.

Key:
MDA-MB-231 cells = experiment: Cell viability assay (XTT); format: cell-based; details: MDA-MB-231, Losartan alone, all concentrations used
Description: (§1) MCF-7, T47D and MDA-MB-231 breast cancer cells were obtained from The American Tissue Culture Collection (LGC Promochem, Teddington, UK). Rat aortic smooth muscle cells (RASMC) were developed from primary culture (Barker et al., 1996). MCF-7 cells were maintained in Minimal Essential Medium (MEM), T47D and MDA-MB-231 cells in RPMI 1640 medium, and RASMC were maintained in Dulbecco's Modified Eagle's Medium (DMEM). All media were supplemented with 2 mM L-glutamine, 10% fetal bovine serum (FBS), 50 U/ml penicillin and 0.05 mg/ml streptomycin. Cells were maintained at 37° C. in a humidified atmosphere ([…], 5% CO2).
(§2) Confluent cell monolayers were removed from tissue culture flasks using trypsin/EDTA. Cells (15×10^3 per well) were seeded into 96 well tissue culture plates containing the appropriate medium for each cell line. […] Cell viability was assessed by the ability of metabolically active cells to reduce 2,3-bis[2-Methoxy-4-nitro-5-sulphophenyl]-2H-tetrazolium-5-carboxyanilide inner salt (XTT) to the coloured formazan product. Absorbance was measured using a Multiskan Ascent microplate reader (Thermo Labsystem, Helsinki, Finland) at a wavelength of 450 nm and a reference wavelength of 630 nm. Each measurement was performed in triplicate. IC50s were calculated using a non-linear regression formula using GraphPad Prism v4.0 software (GraphPad Software Inc, San Diego Calif., USA).

MCF-7 cells = experiment: Cell viability assay (XTT); format: cell-based; details: MCF-7, Losartan alone, all concentrations used
Description: as §1, §2

T47D cells [1] = experiment: Cell viability assay (XTT); format: cell-based; details: Homo sapiens, Losartan alone, 25 μmol/L
Description: as §1, §2

T47D cells [2] = experiment: Apoptosis - caspase-3/7 activity; format: cell-based; details: 100 nmol/L angiotensin II, 12 hours
Description: Cells were harvested using Trypsin/EDTA and counted.

[3] = target: peptide antigen EDGIKRIQDDC-biotin (from AT1-receptor N-terminal region) (Rattus norvegicus, UniProt P25095); experiment: Antigen binding ELISA of scFv variants; details: for activity in ELISA compared with murine scFv (12D): FIG. 13, indirect comparison against purified IgM; for binding to peptide antigen by ELISA versus murine scFv (12D and 11B): absorbance 450 nm per mg protein/well, FIG. 12
Description: Enzyme-linked immunosorbant assays (ELISAs) were carried out in Maxisorp 96-well plates coated with Peptide antigen EDGIKRIQDDC-biotin (SEQ ID NO:14) (2-8 ug/ml in carbonate buffer pH 9.6) overnight at 4 or 37 C. The coated wells were blocked using 1% alkaline soluble casein (Blocking buffer) for 1 h at RT, then washed three times with PBS containing 0.1% v/v Tween 20. ScFv samples diluted between 1:1 to 1:100 in PBS-T were added and incubated for 1 h at RT before washing as before. A secondary HRP-conjugated anti-His-Tag antibody was then added (diluted 1:1000 in blocking buffer) for 1 h at RT. Wells were then washed three times in PBS-T then twice with PBS (without Tween 20). 100 μl of TMB substrate solution was added and colour was allowed to develop for 30 min, at which time 100 μl of 2M sulphuric acid was added to stop the reaction. Absorbance at 450 nm was read on a plate reading spectrophotometer. Protein concentrations were determined using an Eppendorf Biophotometer reading at 280 nm and using an extinction coefficient for the scFv of 1.7 as above.

[4] = target: biotinylated peptide antigen (AT1 receptor) (Rattus norvegicus, UniProt P25095); experiment: Quartz crystal microbalance binding (Attana 100); details: 9 μg/ml, 100 second injection period
Description: Data were obtained comparing the characteristics of binding of the scFv variants and IgM to immobilised peptide antigen using the Attana 100 Quartz Crystal Microbalance. This involved use of a streptavidin (0.1 mg/ml)-coated biotin “chip” (gold-plated quartz crystal in an Attana 100 Biosensor (Quartz crystal microbalance (QCM)) (Attana AB, Stockholm, Sweden). Peptide antigen corresponding to that sequence used to raise the original murine hybridoma, biotinylated at the C-terminus, was then run across the chip at a concentration of 4 μg/ml to create a binding target for scFvs and IgM that were subsequently run across the surface of the QCM chip. Attester software (Attana, Sweden) was used to monitor changes in resonance frequency of the QCM chip in response to binding of a test antibody to the antigen. The magnitude of deflection in Hz over the period of sample injection of 100 s in Hz/second was determined for each antibody at a concentration of 9 μg/ml. The rate at which the antibody was then released from the QCM chip was also measured in Hz/second from the straight-line portion of the biosensor trace as antibody gradually departed from the chip and as the resonance frequency of the chip decreased. Running buffer was PBS containing 0.005% Tween 20 (PBST) and this was also used to make antibody dilutions to give a final protein concentration of 9 μg/ml in each case. The Attana 100 was set up with a 50 μl injection loop and was running with a constant pump speed of 20 μl/min. Samples and PBST buffer controls were injected over 100 seconds giving a sample volume across the chip of 33 μl. 100 mM (6.6 μl volume) phosphoric acid solution was used to regenerate the strepavidin-antigen surface between individual experimental sample runs.

| Molecule | activity in ELISA compared with murine scFv (12D) [3] | binding to peptide antigen by ELISA versus murine scFv (12D and 11B) [3] | change in resonance frequency (apparent on-rate, Hz/second) compared with IgM [4] | other results |
| --- | --- | --- | --- | --- |
| CCCCc1nc(Cl)c(CO)n1Cc1ccc(-c2ccccc2-c2nn[nH]n2)cc1 [Losartan, reference compound] | – | – | – | effect on cell survival (MDA-MB-231 cells): unaffected; effect on cell survival (MCF-7 cells): unaffected; inhibition at 25 µM (T47D cells [1]): 43% |
| angiotensin II (DRVYIHPF; Angiotensin-2; UniProt P01019 25-32, looked up) [peptide hormone added at 100 nmol/L in the cell assays, reference compound] | – | – | – | caspase-3/7 activity compared with untreated control (T47D cells [2]): inhibited caspase-3/7 activity |
| HuCY: humanised (resurfaced) variant of scFv R6313/G2, SEQ ID NO:27 (protein, HuCY) scFv: QVQLVQSGPELVKPGASVKISCKASGYSFTGYNMNWVKQAPGKSLEWIGNIDPYYGGTTYNQKFKGKATLTVDKSSSTAYMQLKSLRSEDTAVYYCAREVDYWGQGTTVTVSSGGGGSGGGGSGGGGSDIVLTQSPASLAVSLGERATISCRASKSVSTSGYSYMHWYQQKPGQPPRLLIYLVSNLESGVPDRFSGSGSGTDFTLTISSVEAEDVAVYYCQHIRELTRSEGTKLEIKR | higher activity | more strongly; also recorded: increased binding | – | – |
| var3: humanised variant of scFv R6313/G2, framework changes only, SEQ ID NO:28 (protein, var3) scFv: QVQLVQSGPELVKPGASVKISCKASGYSFTGYNMNWVKQAPGKGLEWIGNIDPYYGGTTYNQKFKGKATLTVDKSSSTAYMQLKSLRSEDTAVYYCAREVDYWGQGTTVTVSSGGGGSGGGGSGGGGSDIVLTQSPASLAVSLGERATISCRASKSVSTSGYSYMHWYQQKPGQPPRLLIYLVSNLESGVPDRFSGSGSGTDFTLTISSVEAEDVAVYYCQHIRELTRSEGTKLEIKR | – | more strongly; also recorded: increased binding | significantly greater increases in resonance frequency; also recorded: significantly greater changes in resonance frequency | – |
| var4: humanised variant of scFv R6313/G2 with two further changes in VLCDR2 (LVSDLED), SEQ ID NO:29 (protein, var4) scFv: QVQLVQSGPELVKPGASVKISCKASGYSFTGYNMNWVKQAPGKGLEWIGNIDPYYGGTTYNQKFKGKATLTVDKSSSTAYMQLKSLRSEDTAVYYCAREVDYWGQGTTVTVSSGGGGSGGGGSGGGGSDIVLTQSPASLAVSLGERATISCRASKSVSTSGYSYMHWYQQKPGQPPRLLIYLVSDLEDGVPDRFSGSGSGTDFTLTISSVEAEDVAVYYCQHIRELTRSEGTKLEIKR | higher activity | more strongly; also recorded: increased binding; also recorded: most significantly increased binding | significantly greater increases in resonance frequency; also recorded: significantly greater changes in resonance frequency | increase in binding to the antigen compared with murine scFv ([3]; ELISA, same amount and purity of scFv): 5-10 fold |
